The results in this text go back to article PMC4958245.

The target in the assay is recombinant Fc−ICAM-1 (human) (UniProt P05362). The assay is described as follows: BLI; Octet QKe; DBLβ domains on an Fc−ICAM-1 probe; apparent Kd from double-reference-subtracted data of three concentrations, global 1:1 Langmuir fit. (In BLI a coated tip is dipped into the sample, and binding shifts an interference pattern.)
Chain of UniProt P05362 (P05362 28-480): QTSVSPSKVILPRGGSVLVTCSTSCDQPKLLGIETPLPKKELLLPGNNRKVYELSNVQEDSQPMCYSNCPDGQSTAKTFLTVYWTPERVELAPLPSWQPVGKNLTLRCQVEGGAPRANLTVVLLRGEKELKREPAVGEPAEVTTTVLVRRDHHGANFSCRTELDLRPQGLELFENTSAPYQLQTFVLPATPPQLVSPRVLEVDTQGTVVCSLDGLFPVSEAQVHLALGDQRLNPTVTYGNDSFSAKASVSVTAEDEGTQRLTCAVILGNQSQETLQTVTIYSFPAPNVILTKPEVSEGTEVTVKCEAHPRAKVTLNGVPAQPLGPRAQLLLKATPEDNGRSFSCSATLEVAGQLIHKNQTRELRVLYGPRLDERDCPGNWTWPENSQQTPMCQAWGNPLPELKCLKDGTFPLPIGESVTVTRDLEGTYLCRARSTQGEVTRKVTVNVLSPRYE

Turning to “IT4var07DBLβ1 (N726-C1211) (domain or fragment)”, the Kd was 8.7 nM.
